In article PMC4499152:
Where two headings read alike, the source gives them in different places.

Key:
RPA complex [1] = target: T1, RPA complex (UniProt P27694;P15927;P35244 1-616;1-270;1-121); assay: pull-down
RPA complex [2] = target: T1, RPA complex; assay: pull-down; remark: listed apart in the source

T1 sequence (P27694 whole entry, chain 1 of 3): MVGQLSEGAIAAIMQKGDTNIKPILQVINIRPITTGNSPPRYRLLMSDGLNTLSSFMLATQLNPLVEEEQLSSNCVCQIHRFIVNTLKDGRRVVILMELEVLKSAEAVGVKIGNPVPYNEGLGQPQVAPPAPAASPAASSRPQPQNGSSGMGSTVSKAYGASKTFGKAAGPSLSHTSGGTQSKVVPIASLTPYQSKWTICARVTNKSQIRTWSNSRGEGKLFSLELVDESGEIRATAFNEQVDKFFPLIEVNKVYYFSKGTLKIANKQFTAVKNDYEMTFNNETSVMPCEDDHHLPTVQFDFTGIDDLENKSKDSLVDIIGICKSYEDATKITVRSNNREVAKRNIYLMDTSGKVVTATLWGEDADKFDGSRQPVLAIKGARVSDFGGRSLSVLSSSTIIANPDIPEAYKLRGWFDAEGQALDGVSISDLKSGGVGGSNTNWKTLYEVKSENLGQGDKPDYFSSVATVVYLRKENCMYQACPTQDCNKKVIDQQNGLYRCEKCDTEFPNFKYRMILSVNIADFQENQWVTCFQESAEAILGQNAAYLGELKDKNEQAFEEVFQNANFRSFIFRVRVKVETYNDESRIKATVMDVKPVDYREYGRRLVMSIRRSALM
T1 sequence (P15927 whole entry, chain 2 of 3): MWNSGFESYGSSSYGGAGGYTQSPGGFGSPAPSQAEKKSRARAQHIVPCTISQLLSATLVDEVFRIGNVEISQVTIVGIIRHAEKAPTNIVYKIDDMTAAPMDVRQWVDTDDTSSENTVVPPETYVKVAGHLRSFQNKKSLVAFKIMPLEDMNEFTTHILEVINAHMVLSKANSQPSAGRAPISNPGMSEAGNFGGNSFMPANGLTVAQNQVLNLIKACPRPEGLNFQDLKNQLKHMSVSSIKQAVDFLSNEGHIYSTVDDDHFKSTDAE
T1 sequence (P35244 whole entry, chain 3 of 3): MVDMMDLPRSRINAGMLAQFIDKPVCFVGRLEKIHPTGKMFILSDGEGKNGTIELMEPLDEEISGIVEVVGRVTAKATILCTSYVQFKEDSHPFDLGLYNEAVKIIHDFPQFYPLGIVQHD

Binder | binding result (RPA complex [1]) | binding result (RPA complex [2])
TTAGGGTTAGGGTTAGGGTTAGGGTTAGGGTTAGGGTTAGGGTTAGGG (ssDNA) [ssTEL] | binds | 
TTTGCGTTTGCGTTTGCGTTTGCGTTTGCGTTTGCGTTTGCGTTTGCG (ssDNA) [ssMUT] |  | binds
